Source: US6358687, “Methods for monitoring the binding of A1/UP1 to single-stranded nucleic acid sequences, and to measure the effect of this binding on telomere extension and protection” (Telogene Inc.)

Legend:
[1] = biological target: T1, GST-UP1 (hnRNP A1 fragment) (UniProt P49312 P49312:1-196); assay: EMSA; 0.25-1.0 uM protein; settings: tags: GST; label: 5'-32P
Description: (§1) Gel-shift assays were performed using single-stranded or partially double-stranded duplex substrates. A, the concentrations of GST-UP1 (G-UP1) used for each set of DNA substrate were 0.25, 0.5, 1.0 and 0 µM. Duplex formation was accomplished by incubating an equimolar amount of unlabeled Tb with labeled b' (or unlabeled aT with labeled a'). The partial duplex substrates migrate slightly above the position of labeled Tb and aT. […] B, gel shift assays were accomplished in the presence of an excess of cold oligonucleotides as competitor. Labeled Tb or aT (0.1 µM) was used in combination with cold Tb or aT (0, 0.625, 1.25, 2.5 and 5.0 µM) and G-UP1 (0.3 µM). (Open bar) vertebrate telomeric repeats; (solid bar) nontelomeric DNA. The asterisk (*) indicates which oligonucleotide was ^32P-labeled at its 5' end. Complexes were fractionated on 5% non-denaturating polyacrylamide gels. The position of the free and complexed oligonucleotides is shown.

UP1 (hnRNP A1 fragment) [2] = biological target: T2, UP1 (hnRNP A1 fragment) (UniProt P49312 P49312:1-196); assay: EMSA; not shown; settings: tags: GST removed by thrombin
T2 sequence (P49312 1-196, one chain of several): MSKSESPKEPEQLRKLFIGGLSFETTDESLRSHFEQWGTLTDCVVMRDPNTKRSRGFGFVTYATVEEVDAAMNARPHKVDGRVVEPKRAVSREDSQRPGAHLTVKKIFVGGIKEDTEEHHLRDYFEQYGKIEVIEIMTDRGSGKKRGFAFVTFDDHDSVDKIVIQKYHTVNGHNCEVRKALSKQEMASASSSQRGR

[3] = biological target: T1, GST-UP1 (hnRNP A1 fragment); assay: EMSA; legend titled binding to single-stranded telomeric extensions in partial duplex; settings: tags: GST
Description: as §1

[4] = biological target: T1, GST-UP1 (hnRNP A1 fragment); assay: EMSA; not shown; settings: tags: GST; label: 5'-32P
Description: as §1

[5] = biological target: T1, GST-UP1 (hnRNP A1 fragment); assay: EMSA; 0.2-4.0 uM protein, 0.5 uM TS10; 2.5 mM MgCl2, 75 mM KCl, 30 C; settings: tags: GST; label: 5'-32P
Description: (§2) GST-UP1 (G-UP1) at concentrations of 0, 0.2, 0.5, 1.0, 2.0 and 4.0 µM, or UP1 at concentrations of 0, 1.0, 2.0 and 4.0 µM, were incubated with TS10 (0.5 µM). Complexes were fractionated on 5% non-denaturating polyacrylamide gels. The position of complexes and free TS10 is shown.

UP1 (hnRNP A1 fragment) [6] = biological target: T2, UP1 (hnRNP A1 fragment); assay: EMSA; 1-4 uM protein, 0.5 uM TS10; settings: tags: GST removed by thrombin; label: 5'-32P
Description: as §2

T1 sequence (P49312 1-196, one chain of several): as above

GGCCTAGTGTCCTGGTAGGGTTAGGGTTAGGGT (ssDNA) [aT]: binds [1].

TAGGGTTAGGGTTAGGGTGGTCCTGTGATCCGG (ssDNA) [Tb]: binds [1].

GGTTAGGGTTAGGGTTAG (ssDNA) [Tel2]: binds (UP1 (hnRNP A1 fragment) [2]).

GGGGGTGGGAGCAGGGGAGG (ssDNA) [Ne4]: no binding (UP1 (hnRNP A1 fragment) [2]).

B1: aT/a' partial duplex (mixed)
DNA 1: GGCCTAGTGTCCTGGTAGGGTTAGGGTTAGGGT
DNA 2: CCAGGACACTAGGCC
B1: binds ([3]; label: 5'-32P on a', 3' single-stranded telomeric overhang).

B2: Tb/b' partial duplex (mixed)
DNA 1: TAGGGTTAGGGTTAGGGTGGTCCTGTGATCCGG
DNA 2: CCGGATCACAGGACC
B2: binds ([3]; label: 5'-32P on b', 5' single-stranded telomeric overhang).

CCGGATCACAGGACC (ssDNA) [b']: no binding [4].

CCAGGACACTAGGCC (ssDNA) [a']: no binding [4].

B3: TS10 (ssDNA)
DNA: TTAGGGTTAGGGTTAGGGTTAGGGTTAGGGTTAGGGTTAGGGTTAGGGTTAGGGTTAGGG
B3: binds [5]; binds (UP1 (hnRNP A1 fragment) [6]).
